Assay results taken from PMC8892339 (2022).

Experiments:
Assay in all cases: SPR, 37 °C
[1] = target: CD3ζ ITAM3 NC peptide ITAM3 (Homo sapiens, UniProt P20963, both ITAM tyrosines phosphorylated peptide; tSH2-GFP fusion)
[2] = target: CD3ζ ITAM3 N peptide ITAM3 (Homo sapiens, UniProt P20963, N-terminal ITAM tyrosine monophosphorylated peptide; tSH2-GFP fusion)
[3] = target: CD3ζ ITAM3 C peptide ITAM3 (Homo sapiens, UniProt P20963, C-terminal ITAM tyrosine monophosphorylated peptide; tSH2-GFP fusion)
Chain of CD3ζ ITAM3 C peptide ITAM3 (P20963 128-162): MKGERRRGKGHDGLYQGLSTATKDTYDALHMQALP

Chain of CD3ζ ITAM3 N peptide ITAM3 (P20963 128-162): as above
Chain of CD3ζ ITAM3 NC peptide ITAM3 (P20963 128-162): as above

Kd [1]: 0.0962 µM
Kd [2]: 20.7 µM
Kd [3]: 7.52 µM
B1: ZAP70 tandem SH2 (protein)
chain: MPDPAAHLPFFYGSISRAEAEEHLKLAGMADGLFLLRQCLRSLGGYVLSLVHDVRFHHFPIERQLNGTYAIAGGKAHCGPAELCEFYSRDPDGLPCNLRKPCNRPSGLEPQPGVFDCLRDAMVRDYVRQTWKLEGEALEQAIISQAPQVEKLIATTAHERMPWYHSSLTREEAERKLYSGAQTDGKFLLRPRKEQGTYALSLIYGKTVYHYLISQDKAGKYCIPEGTKFDTLWQLVEYLKLKADGLIYCLKEACPNSSA
